B2: human TRAIL (TNF Related Apoptosis Inducing Ligand), as used in the receptor binding analysis (ligand)
chain: MAMMEVQGGPSLGQTCVLIVIFTVLLQSLCVAVTYVYFTNELKQMQDKYSKSGIACFLKEDDSYWDPNDEESMNSPCWQVKWQLRQLVRKMILRTSEETISTVQEKQQNISPLVRERGPQRVAAHITGTRGRSNTLSSPNSKNEKALGRKINSWESSRSGHSFLSNLHLRNGELVIHEKGFYYIYSQTYFRFQEEIKENTKNDKQMVQYIYKYTSYPDPILLMKSARNSCWSKDAEYGLYSIYQGGIFELKENDRIFVSVTNEHLIDMDHEASFFGAFLVG
notes: also called huTRAIL

For assay [1], the target named is B2. The assay can be described thus: slide autoradiography (procedure of Gearing et al.). How it is done:
(§1) TRAIL was tested for ability to bind receptors of the TNF-R family of receptors. The binding analysis was conducted using the slide autoradiography procedure of Gearing et al. (EMBO J. 8:3667, 1989).

The target of assay [2] is T1, human CD30 (human, UniProt P28908 19-385, limits assumed).
T1 sequence (looked up): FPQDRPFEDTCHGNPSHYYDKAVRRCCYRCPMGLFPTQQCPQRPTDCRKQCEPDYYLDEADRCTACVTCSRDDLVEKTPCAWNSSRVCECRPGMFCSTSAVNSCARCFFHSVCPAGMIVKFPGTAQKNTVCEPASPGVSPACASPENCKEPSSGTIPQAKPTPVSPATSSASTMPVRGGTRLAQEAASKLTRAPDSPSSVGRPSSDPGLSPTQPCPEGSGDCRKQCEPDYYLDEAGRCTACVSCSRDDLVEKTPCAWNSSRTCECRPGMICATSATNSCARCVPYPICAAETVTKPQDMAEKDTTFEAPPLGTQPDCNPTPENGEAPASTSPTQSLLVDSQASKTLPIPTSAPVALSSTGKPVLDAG
The description is as above. How it is done:
as §1

B1: human LTβR (receptor, UniProt P36941 31-227, looked up)
chain: QAVPPYASENQTCRDQEKEYYEPQHRICCSRCPPGTYVSAKCSRIRDTVCATCAENSYNEHWNYLTICQLCRPCDPVMGLEEIAPCTSKRKTQCRCQPGMFCAAWALECTHCELLSDCPPGTEAELKDEVGKGNNHCVPCKAGHFQNTSSPSARCQPHTRCENQGLVEAAPGTAQSDTTCKNPLEPLPPEMSGTMLM
notes: also called TNFR-RP
Regarding B1, in assay [1], the binding result was “no binding”.

Turning to B2, the binding result in assay [2] is listed as “no binding”.

B3: human CD27 (receptor, UniProt P26842 20-191, looked up)
chain: ATPAPKSCPERHYWAQGKLCCQMCEPGTFLVKDCDQHRKAAQCDPCIPGVSFSPDHHTRPHCESCRHCNSGLLVRNCTITANAECACRNGWQCRDKECTECDPLPNPSLTARSSQALSPHPQPTHLPYVSEMLEARTAGHMQTLADFRQLPARTLSTHWPPQRSLCSSDFIR
As for B3, the binding result in assay [1] is listed as “no binding”.

B4: human OX40 (receptor, UniProt P43489 29-214, looked up)
chain: LHCVGDTYPSNDRCCHECRPGNGMVSRCSRSQNTVCRPCGPGFYNDVVSSKPCKPCTWCNLRSGSERKQLCTATQDTVCRCRAGTQPLDSYKPGVDCAPCPPGHFSPGDNQACKPWTNCTLAGKHTLQPASNSSDAICEDRDPPATQPQETQGPPARPITVQPTEAWPRTSQGPSTRPVEVPGGRA
B4: in assay [1], the binding result is “no binding”.

B5: human TNF-R (p80 form) (receptor, UniProt P20333 23-257, looked up)
chain: LPAQVAFTPYAPEPGSTCRLREYYDQTAQMCCSKCSPGQHAKVFCTKTSDTVCDSCEDSTYTQLWNWVPECLSCGSRCSSDQVETQACTREQNRICTCRPGWYCALSKQEGCRLCAPLRKCRPGFGVARPGTETSDVVCKPCAPGTFSNTTSSTDICRPHQICNVVAIPGNASMDAVCTSTSPTRSMAPGAVHLPQPVSTRSQHTQPTPEPSTAPSTSFLLPMGPSPPAEGSTGD
Consider B5, for which the binding result in assay [1] is given as “no binding”.

These data come from patent US20040052788A1 (IMMUNEX, published 2004).
